Measured values published in publication PMC8528929.
Substitutions are numbered along the chain they refer to.

B1: 12H2 (antibody, V domains shown)
VH: EVQLQESGPGLVKPSQSLFLTCTVTGYSITSDYAWNWIRQFPGNKLEWMGYITYSGSTSYNPSLKSRISITRDTSKNQFFLQLNSVTTEDTATYYCARGDGYFFPLDYWGQGTTLTVSS
VL: DIVMTQSPSSLSVSAGEKVTMSCKSSQSLLNSGNQKSYLAWYQQRPGQPPKLLIYGASTRESGVPDRFTGSGSGTDFTLTISSVQAEDLAVYYCQNDHSYPPTFGAGTKLELK
B2: 13I1 (antibody, V domains shown)
VH: B1 VH with F19S, K65R, T88S, F103Y
VL: B1 VL with S32G, R45K

Target: biotinylated SARS-CoV-2 RBD (SARS-CoV-2) (UniProt P0DTC2)
Experiment: flow cytometry on antigen-coated beads

| Binder | EC50 |
| --- | --- |
| B1 | 66 pM |
| B2 | 82 pM |
